The text below walks through data of US20140243268A1 (GEORGIA REGENTS RESEARCH INSTITUTE, published 2014).

This assay deals with T1, ErbB2 (UniProt P04626 23-1255, limits assumed).
T1 construct: also called Her2; HER2
The experiment in a line: not described (data not shown).

B1: Erbin1-693βgal, fusion protein containing the N-terminal 693 aa residues of Erbin and β-galactosidase (other, mouse, UniProt Q80TH2 1-693, looked up)
chain: MTTKRSLFVRLVPCRCLRGEEETVTTLDYSHCSLEQVPKEIFTFEKTLEELYLDANQIEELPKQLFNCQSLHKLSLPDNDLTTLPASIANLINLRELDVSKNGIQEFPENIKNCKVLTIVEASVNPISKLPDGFSQLLNLTQLYLNDAFLEFLPANFGRLTKLQILELRENQLKMLPKTMNRLTQLERLDLGSNEFTEVPEVLEQLSGLREFWMDGNRLTFIPGFIGSLRQLTYLDVSKNNIEMVEEGISTCENLQDFLLSSNSLQQLPETIGSLKNVTTLKIDENQLMYLPDSIGGLRSIEELDCSFNEIEALPSSIGQLTNMRTFAADHNYLQQLPPEIGNWKNITVLFLHCNKLETLPEEMGDMQKLKVINLSDNRLKNLPFSFTKLQQLTAMWLSDNQSKPLIPLQKETDTETQKMVLTNYMFPQQPRTEDVMFISDNESFNPALWEEQRKQRAQVAFECDEDKDEREAPPREGNLKRYPTPYPDELKNMVKTVQTIVHRLKDEETNEESGRDLKQHEDQQVVNKDKCVKTSESTTTKSKLDEREKYMNSVQKMSEPEAETNGGNLPVTASMKLSGNLKHIVNHDDVFEESEELSSDEEMKMAEMRPPLIESSINQPKVVALSNNKKDDAKDADSLSDEVTHNSNQNNSNCSSPSRMSDSVSLNTDSSQDTSLCSPVKQTPVDSNSKVR
notes: Expressed in erbin ΔC/ΔC mice; lacks residues 694-1450 of mouse Erbin, including the PDZ domain; not shown: β-galactosidase encoded by the inserted lacZ gene
On to B1, for which the binding result is recorded as “no binding”.
